In this assay the target is wild-type SARS-CoV 3CL protease (mature enzyme), as used for analytical ultracentrifugation (SARS-CoV). Description: AUC.

On to “wild-type SARS-CoV 3CL protease (mature enzyme), as used for analytical ultracentrifugation”, for which the Kd amounted to 350 pM.
